Results reported in patent US20190203279A1 (NAVINCI DIAGNOSTICS, published 2019).

Target: T1, β-catenin (UniProt P35222 2-781)
T1 construct: Endogenous protein in A549 cells; also called beta-catenin
T1 sequence (looked up): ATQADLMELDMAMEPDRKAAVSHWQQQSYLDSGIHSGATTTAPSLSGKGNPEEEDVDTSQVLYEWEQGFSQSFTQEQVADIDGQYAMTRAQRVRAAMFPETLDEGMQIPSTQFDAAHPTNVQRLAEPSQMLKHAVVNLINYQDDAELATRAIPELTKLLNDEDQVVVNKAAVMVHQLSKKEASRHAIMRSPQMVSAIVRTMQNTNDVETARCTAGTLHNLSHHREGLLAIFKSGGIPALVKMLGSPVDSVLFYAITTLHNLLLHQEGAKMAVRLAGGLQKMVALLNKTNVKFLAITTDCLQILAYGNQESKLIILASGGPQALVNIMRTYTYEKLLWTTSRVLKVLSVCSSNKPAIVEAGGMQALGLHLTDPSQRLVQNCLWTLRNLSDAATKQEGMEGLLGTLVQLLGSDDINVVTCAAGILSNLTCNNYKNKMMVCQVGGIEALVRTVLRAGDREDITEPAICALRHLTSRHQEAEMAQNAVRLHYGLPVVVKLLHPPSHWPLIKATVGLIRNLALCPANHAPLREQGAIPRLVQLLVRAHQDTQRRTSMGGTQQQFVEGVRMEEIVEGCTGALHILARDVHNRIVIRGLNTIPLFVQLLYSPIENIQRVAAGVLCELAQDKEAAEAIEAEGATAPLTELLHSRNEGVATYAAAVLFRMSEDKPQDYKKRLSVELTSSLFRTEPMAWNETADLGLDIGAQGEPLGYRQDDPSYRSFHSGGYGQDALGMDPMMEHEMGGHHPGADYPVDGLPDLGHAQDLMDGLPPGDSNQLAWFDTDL
Assay: in situ proximity-based RCA assay on fixed A549 cells with anti-E-cadherin and anti-β-catenin primary antibodies and oligonucleotide-conjugated secondary antibodies
Description: A proximity-based detection assay was performed to detect a protein-protein complex in situ. Frozen A549 cells fixed on a microscopy slide were thawed and incubated with PBS+0.2% Triton X-100 for 5 minutes to permeabilise the cell membranes. Slides were incubated with 30 μl Olink blocking buffer for 60 minutes at 37° C. in a humidity chamber. Primary antibodies were diluted in Olink Antibody diluent (mouse IgG anti E-cadherin 1:100, rabbit IgG anti β-catenin 1:200). Blocking buffer was removed and 15 μl of each antibody solution was added and incubated overnight at 4° C. Slides were washed, and incubated with 30 μl 20 nM secondary antibodies conjugated to oligonucleotides (nucleic acid probe and activator molecule) for 60 minutes at 37° C. in a humidity chamber. Following incubation, slides were washed and incubated with 30 μl RCA mix (Phi29 buffer, BSA, PolyA, dNTPs, UNG, Hoechst, Texas Red labelled detection oligonucleotide and Phi29 polymerase) for 100 minutes at 37° C. in a humidity chamber. Slides were washed at room temperature and allowed to try, before being contacted with SlowFade mounting media and a coverslip applied and incubated for 15 minutes in the dark. All samples were analysed at the same magnification and exposure time (FIG. 18). […]

B1: E-cadherin (other, UniProt P12830 155-882, looked up)
chain: DWVIPPISCPENEKGPFPKNLVQIKSNKDKEGKVFYSITGQGADTPPVGVFIIERETGWLKVTEPLDRERIATYTLFSHAVSSNGNAVEDPMEILITVTDQNDNKPEFTQEVFKGSVMEGALPGTSVMEVTATDADDDVNTYNAAIAYTILSQDPELPDKNMFTINRNTGVISVVTTGLDRESFPTYTLVVQAADLQGEGLSTTATAVITVTDTNDNPPIFNPTTYKGQVPENEANVVITTLKVTDADAPNTPAWEAVYTILNDDGGQFVVTTNPVNNDGILKTAKGLDFEAKQQYILHVAVTNVVPFEVSLTTSTATVTVDVLDVNEAPIFVPPEKRVEVSEDFGVGQEITSYTAQEPDTFMEQKITYRIWRDTANWLEINPDTGAISTRAELDREDFEHVKNSTYTALIIATDNGSPVATGTGTLLLILSDVNDNAPIPEPRTIFFCERNPKPQVINIIDADLPPNTSPFTAELTHGASANWTIQYNDPTQESIILKPKMALEVGDYKINLKLMDNQNKDQVTTLEVSVCDCEGAAGVCRKAQPVEAGLQIPAILGILGGILALLILILLLLLFLRRRAVVKEPLLPPEDDTRDNVYYYDEEGGGEEDQDFDLSQLHRGLDARPEVTRNDVAPTLMSVPRYLPRPANPDEIGNFIDENLKAADTDPTAPPYDSLLVFDYEGSGSEAASLSSLNSSESDKDQDYDYLNEWGNRFKKLADMYGGGEDD
notes: whole, on cells; Endogenous protein in A549 cells
B1: binds.
